This note sets out measurements from patent publication US20210261685A1 (Alector, published 2021).

The target in experiment [1] is T1, murine MerTK extracellular domain (ECD), recombinant (mouse, UniProt Q60805 19-497).
T1 construct: also called moMerTK; mouse MerTK; not shown: polyHis tag or TEVS/Thrombin/murine IgG2a Fc tag
T1 sequence: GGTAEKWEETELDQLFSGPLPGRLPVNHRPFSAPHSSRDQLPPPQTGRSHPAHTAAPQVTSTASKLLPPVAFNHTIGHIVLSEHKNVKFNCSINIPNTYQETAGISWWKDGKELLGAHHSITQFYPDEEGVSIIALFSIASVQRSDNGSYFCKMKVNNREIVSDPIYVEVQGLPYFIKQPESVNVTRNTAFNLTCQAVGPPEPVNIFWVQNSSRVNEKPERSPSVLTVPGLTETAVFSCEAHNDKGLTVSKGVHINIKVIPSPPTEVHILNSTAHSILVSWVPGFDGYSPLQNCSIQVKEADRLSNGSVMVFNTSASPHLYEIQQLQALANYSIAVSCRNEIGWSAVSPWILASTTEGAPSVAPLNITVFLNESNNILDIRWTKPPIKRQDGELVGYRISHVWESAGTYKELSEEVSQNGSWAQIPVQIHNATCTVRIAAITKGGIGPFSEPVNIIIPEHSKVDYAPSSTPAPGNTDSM
The experiment in a line: SPR, Carterra LSA, antibody immobilised. On the procedure:
Binding kinetics of human anti-MerTK IgG1 LALAPS antibodies of the present disclosure to human, cyno, and murine MerTK were evaluated using a Carterra LSA instrument (Carterra, Salt Lake City, Utah). Briefly, anti-MerTK antibodies were prepared by diluting to 10 μg/ml in 10 mM Acetate, pH 4.25 (Carterra), at 300 μl/well. A HC200M sensor chip (Carterra) was activated using the single channel flow cell with a 7-minute injection of a 1:1:1 mixture of 100 mM MES pH 5.5, 100 mM sulfo-NHS, 400 mM EDC (all reconstituted in MES pH 5.5; 100 μl of each mixed in vial immediately before running assay). After switching to the multi-channel array flow cell, the antibodies were injected over the activated chip in a 96-spot array for 15 minutes. The remaining unconjugated active groups on the chip were then blocked by injecting 1M Ethanolamine pH 8.5 (Carterra) for 7 minutes using the single channel flow cell.
After priming with running buffer (HBS-TE, Carterra) with 0.5 mg/ml BSA (Sigma), the immobilized anti-MerTK antibodies were tested for their ability to bind to several forms of recombinant MerTK extracellular domain, including human, cynomolgus, and mouse orthologs as described above. Estimates of affinity were generated by injecting each analyte over the entire antibody array using the single channel flow cell. MerTK analytes were diluted to 33.3, 100, and 300 nM in running buffer, and injected in serial from lowest to highest concentration without regeneration. Two buffer blanks were run between each series (one species per series). Data were processed and analyzed using NextGenKIT high-throughput kinetics analysis software (Carterra).
The equilibrium dissociation constants (KD) were then calculated from the fitted association and dissociation rate constants (k-on and k-off) for anti-MerTK antibodies of the present disclosure. Binding kinetic analysis was also performed on anti-MerTK antibodies H1 (BioLegend, Clone ID: 590H11G1E3), H2 (R&D systems, Clone ID: 125518), M6 (WO2016/106221), and CDX AB2000-A7 hIgG1 (WO2019/084307).
(In general: Surface plasmon resonance follows binding to a sensor surface in real time, without labels.)

In experiment [2] the target is T2, Recombinant human MerTK human Fc Chimera protein (R&D systems, Cat #391-MR-100) (human, UniProt Q12866 26-499, limits assumed).
T2 construct: Bought; also called recombinant human MerTK protein; MerTK-Fc
T2 sequence: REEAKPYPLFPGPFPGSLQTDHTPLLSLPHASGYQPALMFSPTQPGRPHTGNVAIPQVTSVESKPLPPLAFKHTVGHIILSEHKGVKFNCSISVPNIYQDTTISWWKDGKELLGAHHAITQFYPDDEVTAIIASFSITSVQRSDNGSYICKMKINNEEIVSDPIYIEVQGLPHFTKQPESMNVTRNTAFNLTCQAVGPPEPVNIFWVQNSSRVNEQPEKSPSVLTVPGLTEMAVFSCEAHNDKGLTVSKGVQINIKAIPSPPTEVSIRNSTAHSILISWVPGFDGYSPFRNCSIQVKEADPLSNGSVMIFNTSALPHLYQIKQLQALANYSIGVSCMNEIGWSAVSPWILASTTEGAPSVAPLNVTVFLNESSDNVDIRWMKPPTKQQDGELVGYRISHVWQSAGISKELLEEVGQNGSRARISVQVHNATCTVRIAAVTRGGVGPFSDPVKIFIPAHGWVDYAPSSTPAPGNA
The experiment in a line: competition ELISA, His-ProS on captured MerTK-Fc. The method in brief:
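Blocking IC50 (nM) comes from OD450 curves after TMB development of bound His-tagged ligand detected by HRP-anti-His. Ligand (His-Gas6 at 3 μg/ml, or His-ProS at 20 μg/ml) and titrated antibody (66.6 nM to 4 pM final) were incubated 1 h on MerTK-Fc (2 μg/ml) held by an anti-human IgG capture antibody.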
(In general: An ELISA detects its analyte on a solid surface through an enzyme-linked reagent.)

B1: MTK-24 (antibody, human IgG1, V domains shown)
VH: QVQLQQPGAELVKPGASVKLSCKASGYTFTSYWMHWVKQRPGQGLEWIGMIHPNINTNYNEKFKSKATLTVDISSSTAYMQLSSLTSEDSAVYYCAKRSPYSNYDWYFDVWGTGTTVTVSS
VL: DIQMTQSPASLSVSVGETVTITCRASENIYSNLAWYQQKQGKSPQLLVYAATNLADGVPSRFSGSGSGTQYSLKINSLQSEDFGSYYCQHFWGTPLTFGAGTKLELK
Take B1: in experiment [1], the Kd is 55 nM. For the same molecule, the IC50 in experiment [2] turned out to be 0.579 nM.

B2: MTK-10 (antibody, human IgG1, V domains shown)
VH: QVTLKESGPGILQPSQTLSLTCSFSGFSLTTSGMGVGWIRQPSGKGLEWLAHIWSDDDKRSNPALKSRLTISQDSSTNQVFLKIASVDTADSATYYCSHLTPVREFAYWGPGTLVTVSE
VL: DIQMTQTTSSLSASLGDRVTISCSASQGISNYLNWFQQKPDGTVKLLIYYTSRLHSGVPSRFSGSGSGTDFSLTISNLEPEDIATYYCQQYTKLPYTFGGGTKLEIK
With B2, in experiment [1], the binding result is listed as “no binding (tested: 300 nM)”. The IC50 in experiment [2] came out at 3.8 nM.

B3: MTK-30 (antibody, human IgG1, V domains shown)
VH: QVQLQQPGTELVRPGASVKLSCKASGYTFTSYWMHWVKQRPGQGLEWIGNLNPNNGGTYYNEKFKSKATLTVDKSSSTAYMQLSSLTSEDSAVYYCARQILLYFDYWGQGTTLTVSS
VL: DVLMTQTPLSLPVSLGDQASISCRSSQSIVHSNGDTYLEWYLQKPGQSPKLLIYKVSNRFSGVPDRFSGSGSGTDFTLKISRVEAEDLGVYYCFQGSHVPWTFGGGTKLEIK
Take B3: the Kd in experiment [1] worked out at 30 nM. For the same molecule, in experiment [2], the IC50 was 1.57 nM.

B4: MTK-15 (antibody, human IgG1, V domains shown)
VH: QIQLVQSGPELKKPGETVKISCKASGYTFTNYGVHWVKQAPGKGLKWMGWINTYTGEPTYADDFKGRFAFSLETSASTAYLQINNLKNEDMATYFCARGNRYAYMDYWGQGTSVTVSS
VL: QIVLSQSPAILSASPGEKVTMTCRASSSVSYMHWYQQKSGSSPKPWIYATSNLASGVPARFSGSGSGTSYSLTISRVEAEDAATYYCQQWSSNPRTFGGGTKLEIK
B4: the binding result in experiment [1] is reported as “no binding (tested: 300 nM)”. Moreover, the IC50 in experiment [2] was 4.2 nM.

B5: MTK-06 (antibody, human IgG1, V domains shown)
VH: QIQLVQSGPELKKPGETVKISCKASGYTFTNYGMNWVKQAPGKGLKWMGWINTNTGEPTYAEEFKGRFAFSLETSASTAYLQINNLKNEDTATYFCARYYNYWYFDVWGAGTTVTVSS
VL: QIVLSQSPAILSASPGEKVTMTCRASSSVSYMHWYQQKPGSSPKPWIYATSNLASGVPARFSGSGSGTSYSLTISRVEAEDAATYYCQQWSSKPPTFGGGTKLEIK
Regarding B5, the binding result in experiment [1] is “no binding (tested: 300 nM)”. In addition, in experiment [2], the IC50 amounted to 2.17 nM.

B6: MTK-16 (antibody, human IgG1, V domains shown)
VH: LIQLVQSGPELKKPGETVKISCKASGYTFTNHGMNWVKQDPGKGLKWMGWINTYTGEPTYADDFKGRFVFSMETSASAAFLQINNLKNEDTATYFCARKGVTAARYFDYWGQGTTLTVSS
VL: DIVMTQSPKFMSTSVGDRVSITCKASQNVRTAVAWYKKKPGQSPKALINLASNRHTGVPDRFTGSGSGTDFTLTISNVQSEDLADYFCLQHWNYPLTFGGGTKLEIK
With B6, the binding result in experiment [1] was “no binding (tested: 300 nM)”. The IC50 in experiment [2] came out at 8.59 nM.

B7: MTK-27 (antibody, human IgG1, V domains shown)
VH: EVQLQQSGTELVRPGASVKLSCTASGFNIKDDYMHWVQQRPEQGLEWIGWIDPENGNTEYASKFQGKATITADASSNTAYLQLSSLTSEDTAVYYCSTLFSNYFDYWGQGTTLTVSS
VL: DIVMTQSQKFMSTSVGDRVSITCKASQNVRTSVAWYQQKPGQSPKALIYLASNRHTGVPDRFTGSGSGTDFTLTISNVRSEDLADYFCLQHWNYPYTFGGGTKLEIK
On to B7, for which the binding result in experiment [1] is on record as “no binding (tested: 300 nM)”. Besides, in experiment [2], the IC50 amounted to 2.54 nM.

B8: MTK-13 (antibody, human IgG1, V domains shown)
VH: DVQLQESGPGLVKPSQSLSLTCSVTGYSITSGYYWNWIRQFPGNKLEWMGNIDYDGSNKYNPSLKNRISITRDTSKNHFFLKLNSVTPEDTATYFCARDGGNYRSFAYWGQGTLVTVSA
VL: QIVLTQSPPIMSASPGEKVTITCSASSSVSYMYWFQQKPGTSPKLWIYSTFNLASGVPARFSGSGSGTSYSLTISRMEAEDVATYYCQQRSSYPFTFGSGTKLEIK
In the case of B8, the binding result in experiment [1] is “no binding (tested: 300 nM)”. Also, the IC50 in experiment [2] was 3.76 nM.

B9: MTK-26 (antibody, human IgG1, V domains shown)
VH: AVQFQESGPGLVKLSQSLSLTCSVTGYSITSGYYWDWIRQFPGNKLEWMGYISYDGSNNYNPSLKNRISITRDTSKNQFFLKLNSVTTEDTATYYCAREGGYYRSMDYWGQGTSVTVSS
VL: QIVLTQSPAIMSASPGEKVTIACSASSSVSFMHWFQQKPGTSPRLWIYSTSNLASGVPARFSGSGSGTSYSLTISRMEAEDAATYYCQQRSSYPFTFGSGTKLEIK
For the molecule B9, the binding result in experiment [1] was “no binding (tested: 300 nM)”. In addition, the IC50 in experiment [2] was determined as 1.2 nM.

B10: MTK-11 (antibody, human IgG1, V domains shown)
VH: QVQLKQSGPGLVQPSQSLSITCTVSGFSLTDYGVHWVRQSPGKGLEWLGVIWSSGTTDYNEAFISRLSISKDNSKSHVFFKMNSLQAIDTAIYYCARKGHDPYAMDYWGQGTSVTVSS
VL: QIVLTQSPAIMSASLGERVTMTCTASSSISSSYFHWYQQKPGSSPKLWIYSTSNLPSGVPARFSGSGSGTSYSLTISSMEAEDAATYYCHQYYRSPLTFGAGTKLELK
For the molecule B10, the binding result in experiment [1] was “no binding (tested: 300 nM)”. Further, the IC50 in experiment [2] was found to be 24.2 nM.

B11: MTK-05 (antibody, human IgG1, V domains shown)
VH: QVQLQQSGAELVQPGTSVRLSCKTSGYTFTSYWIQWVKQRPGQGLGWIGEIFPGTGTTYYNEKFKGKATLTIDTSSSTAYMQLSSLTSEDSAVYFCARDGAYFDVWGAGTTVTVSS
VL: DIQMTQSPASLSASVGETVTFTCRASENIFSYLAWYQQKQGKSPQLLVYNAKTLAEGVPSRFSGSGSGTHFSLKINSLQPEDFGSYYCLHHYGTPLTFGAGTKLELK
Regarding B11, the binding result in experiment [1] is “no binding (tested: 300 nM)”. In addition, the IC50 in experiment [2] stood at 6.51 nM.

B12: MTK-28 (antibody, human IgG1, V domains shown)
VH: QIQLVQSGPELKKPGETVKISCKASGYTFTTYGMSWVKQAPGKGLKWMGWINTYSGVPTYADDFKGRFAFSLETSASTAYLQINTLKNEDTTTYFCARFLRYYYFDYWGQGTTLTVSS
VL: QIVLSQSPVILSASPGEKVTMTCRASSSVTYMHWYQQQPGSSPKPWIYATSNLASGVPARFSGSGSGTSYSLTISRVETEDAATYYCHQWSGNPTFGGGTKLEIN
Take B12: the binding result in experiment [1] is on record as “no binding (tested: 300 nM)”. In addition, the IC50 in experiment [2] was 2.78 nM.

B13: MTK-12 (antibody, human IgG1, V domains shown)
VH: QVQLQQSGPQLVRPGASVKISCKASGYSFTSHWMHWVKQRPGQGLEWIGMIDPSDGESRLNQKFKDKATLTVDKSSSTAYMQLSSPTFEDSAVYYCARGIYYYGITYAMDYWGQGTSVTVSS
VL: QIVLTQSPAIMSASPGEKVTMTCSASSSVSYMYWYQQKPRSSPRLLIYDTSNLASGVPVRFSGSGSGTSYSLTISRMEAEDAATYYCQQWSSYPLTFGAGTKLELK
As for B13, the binding result in experiment [1] is “no binding (tested: 300 nM)”. In addition, the IC50 in experiment [2] stood at 3.36 nM.

In general, Kd refers to the free concentration of one partner at which half of the binding sites on the other are occupied at equilibrium, for simple one-to-one binding. The term IC50 denotes the concentration that gives 50% inhibition.
